T1: wBm-MurA (Wolbachia endosymbiont of Brugia malayi, UniProt Q5GRP6)
T1 construct: full-length 1278 bp ORF in pET28a (BamHI/XhoI), His6-tagged, expressed in E. coli Rosetta(DE3)pLysS, Ni-NTA purified, ~51 kDa, tag removal not mentioned
T1 sequence (Q5GRP6 1-425): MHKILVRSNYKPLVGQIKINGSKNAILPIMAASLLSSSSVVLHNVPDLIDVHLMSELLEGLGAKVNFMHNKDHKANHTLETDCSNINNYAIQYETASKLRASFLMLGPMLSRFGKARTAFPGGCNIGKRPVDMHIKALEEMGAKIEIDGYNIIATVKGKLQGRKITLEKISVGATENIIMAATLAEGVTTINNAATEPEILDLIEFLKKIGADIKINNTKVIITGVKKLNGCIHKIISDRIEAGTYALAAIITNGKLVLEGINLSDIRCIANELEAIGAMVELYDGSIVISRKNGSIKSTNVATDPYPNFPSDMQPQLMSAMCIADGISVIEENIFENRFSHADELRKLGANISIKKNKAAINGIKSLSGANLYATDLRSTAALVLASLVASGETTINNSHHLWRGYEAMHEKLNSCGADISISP

B1: wBm-MurA (Wolbachia endosymbiont strain TRS of Brugia malayi) (protein)
chain: T1 sequence (Q5GRP6 1-425)
notes: full-length 1278 bp ORF in pET28a (BamHI/XhoI), His6-tagged, expressed in E. coli Rosetta(DE3)pLysS, Ni-NTA purified, ~51 kDa, tag removal not mentioned

Legend:
wBm-MurA = molecular target: T1, wBm-MurA; assay: malachite green phosphate release assay, […] min pre-incubation, […] h reaction; type: biochemical; details: 5 mM PEP, 0.6 mM UDPAG, pH 7.5, 37°C; competitive with PEP; covalent (as stated by authors)
[1] = substrate: C=C(OP(=O)(O)O)C(=O)O; assay: malachite green phosphate release assay, Michaelis-Menten non-linear fit; type: biochemical, Wolbachia endosymbiont of Brugia malayi; details: 5 mM UDPAG, 50 mM Tris-HCl pH 7.5, 10 mM KCl, 1 mM DTT, 10% glycerol, 37°C
[2] = substrate: CC(=O)N[C@H]1[C@@H](OP(=O)(O)OP(=O)(O)OC[C@H]2O[C@@H](n3ccc(=O)[nH]c3=O)[C@H](O)[C@@H]2O)O[C@H](CO)[C@@H](O)[C@@H]1O; assay: as above; type: biochemical, Wolbachia endosymbiont of Brugia malayi; details: 1 mM PEP, 50 mM Tris-HCl pH 7.5, 10 mM KCl, 1 mM DTT, 10% glycerol, 37°C

Molecule	fold decrease of activity at 50 mM (wBm-MurA)	Km [1] [µM]	Km [2] [µM]
C[C@@H]1O[C@@H]1P(=O)(O)O [fosfomycin]	~ 2 fold		
B1		9.198	31.49
